Test [1] concerns the target T1, 人全长重组tau(2N4R) (human, UniProt P10636 2-758).
T1 construct: also called human full-length recombinant tau; 全长重组Tau蛋白
Nature of the test: SPR, single-cycle kinetics. On the technique in general: Surface plasmon resonance follows binding to a sensor surface in real time, without labels.

Test [2] concerns the target T1, 人全长重组tau(2N4R). Put plainly: SPR, Biacore T200, 25 °C, mAb captured by anti-Fc on a CM4 chip, tau as analyte, 1:1 Langmuir fit.

T1 sequence (P10636 other isoform, or with tags, fused parts or gaps limits assumed): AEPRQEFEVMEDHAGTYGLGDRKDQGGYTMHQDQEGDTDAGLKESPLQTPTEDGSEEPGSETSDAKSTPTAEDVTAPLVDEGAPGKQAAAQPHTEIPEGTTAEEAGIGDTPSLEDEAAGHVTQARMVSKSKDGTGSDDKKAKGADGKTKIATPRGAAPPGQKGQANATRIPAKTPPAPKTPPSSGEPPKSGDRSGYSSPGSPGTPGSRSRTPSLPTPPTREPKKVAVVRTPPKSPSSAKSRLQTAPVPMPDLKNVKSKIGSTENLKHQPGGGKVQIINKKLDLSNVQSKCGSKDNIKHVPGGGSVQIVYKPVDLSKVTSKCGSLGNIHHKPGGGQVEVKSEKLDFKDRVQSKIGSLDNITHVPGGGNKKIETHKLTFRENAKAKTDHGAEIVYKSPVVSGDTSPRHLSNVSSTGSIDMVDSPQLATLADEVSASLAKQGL

B1: PT1B1183 (antibody, human IgG1, kappa, V domains shown)
VH: QVQLVQSGAEVKKPGASVKVSCKASGYTFTSYWITWVRQRPGQGLEWMGDIHPGRGSTKYAQKLQGRVTMTTDTSTSTAYMELRSLRSDDTAVYYCARRWGFDYWGQGTLVTVSS
VL: DIVMTQTPLSSPVTLGQPASISCRSSKSLLYKDGKTYLNWFQQRPGQSPRLLIYLMSTRASGVPDRFSGSGAGTDFTLKISRVEAEDVGVYYCQQLVDYPLTFGQGTKLEIKR
notes: Humanised antibody obtained from PT1B1153 by modifying framework region 2 of the light chain
As to B1, in the test with 人全长重组tau(2N4R) [1], the binding result was “binds”.

B2: PT1B545 (antibody, mouse IgG2a, kappa, V domains shown)
VH: QVQLQQPGAELVKPGASVKMSCKASGYTFTSYWITWVKQRPGQGLEWIGDIHPGRGSTKSNEKFKSKATLTVDTSSSTAYMQFSSLTSEDSAVYYCARRWGFDYWGQGTTLTVSS
VL: DIVITQDELSNPVTSGESVSISCRSSKSLLYKDGKTYLNWFLQRPGQSPQLLIYLMSTRASGVSDRFSGSGSGTDFTLEISRVKAEDVGVYYCQQLVDYPLTFGAGTKLELKR
notes: Parental mouse mAb; also called PT/66; 亲本mAb PT/66
Consider B2, for which the binding result in the test with 人全长重组tau(2N4R) [2] is “binds”.

Values taken from CN117083298A (CENTOCOR ORTHO BIOTECH INC, dated 2023).
